Legend:
[1] = target: the molecule itself; test: SEC; Superose 6 3.2/300, 50 mM MES pH 6.2, 150 mM NaCl, no Ca2+
[2] = target: the molecule itself; test: SEC; Superose 6 3.2/300, 50 mM MES pH 6.2, 150 mM NaCl, 4 mM CaCl2, 0 h incubation, room temperature; covalent dimers to tetramer

B1: MUC5B N-terminal part (MUC5B-N), recombinant covalent dimer (domain or fragment, human, UniProt Q9HC84 26-1304, looked up)
chain: QGPVEPSWENAGHTMDGGAPTSSPTRRVSFVPPVTVFPSLSPLNPAHNGRVCSTWGDFHYKTFDGDVFRFPGLCNYVFSEHCRAAYEDFNVQLRRGLVGSRPVVTRVVIKAQGLVLEASNGSVLINGQREELPYSRTGLLVEQSGDYIKVSIRLVLTFLWNGEDSALLELDPKYANQTCGLCGDFNGLPAFNEFYAHNARLTPLQFGNLQKLDGPTEQCPDPLPLPAGNCTDEEGICHRTLLGPAFAECHALVDSTAYLAACAQDLCRCPTCPCATFVEYSRQCAHAGGQPRNWRCPELCPRTCPLNMQHQECGSPCTDTCSNPQRAQLCEDHCVDGCFCPPGTVLDDITHSGCLPLGQCPCTHGGRTYSPGTSFNTTCSSCTCSGGLWQCQDLPCPGTCSVQGGAHISTYDEKLYDLHGDCSYVLSKKCADSSFTVLAELRKCGLTDNENCLKAVTLSLDGGDTAIRVQADGGVFLNSIYTQLPLSAANITLFTPSSFFIVVQTGLGLQLLVQLVPLMQVFVRLDPAHQGQMCGLCGNFNQNQADDFTALSGVVEATGAAFANTWKAQAACANARNSFEDPCSLSVENENYARHWCSRLTDPNSAFSRCHSIINPKPFHSNCMFDTCNCERSEDCLCAALSSYVHACAAKGVQLSDWRDGVCTKYMQNCPKSQRYAYVVDACQPTCRGLSEADVTCSVSFVPVDGCTCPAGTFLNDAGACVPAQECPCYAHGTVLAPGEVVHDEGAVCSCTGGKLSCLGASLQKSTGCAAPMVYLDCSNSSAGTPGAECLRSCHTLDVGCFSTHCVSGCVCPPGLVSDGSGGCIAEEDCPCVHNEATYKPGETIRVDCNTCTCRNRRWECSHRLCLGTCVAYGDGHFITFDGDRYSFEGSCEYILAQDYCGDNTTHGTFRIVTENIPCGTTGTTCSKAIKLFVESYELILQEGTFKAVARGPGGDPPYKIRYMGIFLVIETHGMAVSWDRKTSVFIRLHQDYKGRVCGLCGNFDDNAINDFATRSRSVVGDALEFGNSWKLSPSCPDALAPKDPCTANPFRKSWAQKQCSILHGPTFAACRSQVDSTKYYEACVNDACACDSGGDCECFCTAVAAYAQACHDAGLCVSWRTPDTCPLFCDFYNPHGGCEWHYQPCGAPCLKTCRNPSGHCLVDLPGLEGCYPKCPPSQPFFNEDQMKCVAQCGCYDKDGNYYDVGARVPTAENCQSCNCTPSGIQCAHSLEACTCTYEDRTYSYQDVIYNTTDGLGACLIAICGSNGTIIRKAVACPG
notes: MUC5B mucin, human, N-terminal part with the von Willebrand D1, D2, D' and D3 domains, residues 26-1304 of GenBank NM_002458; Disulfide-bonded (covalent) dimer through D3; Two such dimers form the non-covalent tetramer (Dx2) at pH 6.2 with Ca2+; also called MUC5B N-terminal covalent dimer; MUC5B N terminus; not shown: His6, N-terminal, kept
[1]
  stoichiometry N: 2
[2]
  stoichiometry N: 4
